Ends that are not written are not given here. * marks the point of attachment. Biotin = O=C1N[C@H]2[C@H](CS[C@H]2CCCCC(=O)*)N1
What was measured:
GST-PSD95 PDZ domain 1 [1] = target: T1, GST-PSD95 PDZ domain 1 (human); test: G assay
T1 construct: also called PSD95 d1; PSD-95 d1

GST-PSD95 PDZ domain 3 = target: T2, GST-PSD95 PDZ domain 3 (human); test: G assay
T2 construct: also called PSD95 d3; PSD95 domain 3

GST-PSD95 PDZ domain 2 [2] = target: T3, GST-PSD95 PDZ domain 2 (human); test: G assay
T3 construct: also called PSD95 d2; PSD-95 d2

GST-PSD95 PDZ domain 2 [3] = target: T3, GST-PSD95 PDZ domain 2; test: G assay competition against NMDAR2A or R2B peptide, FIG. 10
GST-PSD95 PDZ domain 1 [4] = target: T1, GST-PSD95 PDZ domain 1; test: G assay with MBP-nNOS, anti-MBP-HRP detection, FIG. 11
Protocol: This protein was used in the G assay in place of a labeled peptide to assess the interaction between PSD95 domains 1 and 2 and nNOS, and detection was performed using an HRP-conjugated antibody against MBP. […] MBP/PSD95 indicates a negative control containing MBP without the nNOS sequences.

T1 sequence (chain, as listed by the source): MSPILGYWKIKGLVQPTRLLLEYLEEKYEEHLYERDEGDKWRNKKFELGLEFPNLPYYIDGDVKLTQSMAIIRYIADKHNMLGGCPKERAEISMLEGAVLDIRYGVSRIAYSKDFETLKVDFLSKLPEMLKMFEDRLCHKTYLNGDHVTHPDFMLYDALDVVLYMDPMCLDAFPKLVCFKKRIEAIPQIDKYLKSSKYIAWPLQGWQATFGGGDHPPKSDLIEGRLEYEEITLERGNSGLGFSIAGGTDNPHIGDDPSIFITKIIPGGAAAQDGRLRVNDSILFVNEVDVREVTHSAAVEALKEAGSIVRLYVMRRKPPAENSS
T2 sequence (chain, as listed by the source): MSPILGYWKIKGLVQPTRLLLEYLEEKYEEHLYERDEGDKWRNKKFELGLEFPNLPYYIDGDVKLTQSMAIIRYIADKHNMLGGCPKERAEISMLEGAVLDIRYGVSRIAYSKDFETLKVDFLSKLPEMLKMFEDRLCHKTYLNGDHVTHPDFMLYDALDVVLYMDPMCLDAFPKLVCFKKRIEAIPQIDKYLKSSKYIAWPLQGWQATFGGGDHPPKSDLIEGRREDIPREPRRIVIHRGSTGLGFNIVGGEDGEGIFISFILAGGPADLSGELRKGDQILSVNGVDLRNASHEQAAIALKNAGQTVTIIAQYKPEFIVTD

Binder	Average OD (GST-PSD95 PDZ domain 1 [1]) [OD]	Average OD (GST-PSD95 PDZ domain 3) [OD]	Average OD (GST-PSD95 PDZ domain 2 [2]) [OD]	IC50 (GST-PSD95 PDZ domain 2 [3]) [nM]	binding result (GST-PSD95 PDZ domain 1 [4])
YGRKKRRQRRREKHFRETEV (also: N-terminal biotin when used as labelled ligand) [TatTAX: TAT transporter sequence coupled to the C-terminal 9 amino acids of Tax]	2.81	2.93	2.79	100 to 1000	–
Biotin-ESSGTQSPKRHSGSYLVTSV [ESSGTQSPKRHSGSYLVTSV peptide]	–	0.7	–	–	–
Maltose Binding Protein (MBP) fused to amino acids 1-120 of nNOS (other, UniProt P29475 1-120, looked up, not shown: large carriers, range 1-120; also called MBP-nNOS; internal PL of nNOS) MEDHMFGVQQIQPNVISVRLFKRKVGGLGFLVKERVSKPPVIISDLIRGGAAEQSGLIQAGDIILAVNGRPLVDLSYDSALEVLRGIASETHVVLILRGPEGFTTHLETTFTGDGTPKTI	–	–	–	–	no binding

Source: patent US20110039758A1 (published 2011)
